{"source": "patent US20190270809A1", "about": "(FOURTH MILITARY MEDICAL UNIVERSITY, published 2019)", "binders": {"B1": {"name": "mouse monoclonal antibody HAb18GC2 (6H8) (antibody, V domains shown)", "VH": "EVKLEESGGGLVQPGGSMKLSCVASGFTFSNFWMNWVRQSPEKGLEWVAEIRLKSNNYATHYAESVKGRFTISRDDSKSSVYLQMNNLRTEDTGIYYCTSYDYEYWGQGTLVTVSA", "VL": "NIVMTQSPKSMSMSVGERVTLSCKASENVGTYVSWYQQKPEQSPKLLIYGASNRYTGVPDRFTGSGSATDFTLTISSVQAEDLADYHCGQSYSYPFTFGSGTKLEIK", "notes": "Mouse monoclonal from hybridoma CCTCC-C200636; also called mouse 6H8; Mouse monoclonal 6H8"}, "B2": {"name": "chimeric antibody c6H8 (antibody, V domains shown)", "VH": "B1 VH", "VL": "B1 VL", "notes": "Mouse 6H8 variable regions fused to a human constant region of IgG1 isotype; also called chimeric 6H8"}, "B3": {"name": "humanized antibody HP6H8-3 (antibody, V domains shown)", "VH": "EVQLVESGGGLVQPGGSLKLSCAASGFTFSNFWMNWVRQAPGKGLEWVAEIRLKSNNYATHYAESVKGRFTISRDDSKNTLYLQMNSLKTEDTAVYYCTSYDYEYWGQGTLVTVSA", "VL": "DIQMTQSPSSLSASVGDRVTLTCKASENVGTYVSWYQQKPGQAPKLLIYGASNRYTGVPSRFTGSGSGTDFTLTISSLQPDDFATYYCGQSYSYPFTFGSGTKLEIK", "notes": "Derived from scFv clone 11242; also called WBP229-203; pCI-WBP229-203L/H"}, "B4": {"name": "humanized antibody HP6H8-1 (antibody, V domains shown)", "VH": "B3 VH with K19R, A49S", "VL": "B3 VL with S10T, T22S, Q42K, D81E", "notes": "Derived from scFv clone 11305; also called WBP229-205; pCI-WBP229-205L/H"}, "B5": {"name": "humanized antibody HP6H8-2 (antibody, V domains shown)", "VH": "B3 VH with K89R", "VL": "B3 VL with S9A, L21I, T22S, A43T, T63S", "notes": "Derived from scFv clone 11245; also called WBP229-204; pCI-WBP229-204L/H"}}, "note": "Numbering of substitutions follows the chain as printed.", "data": [{"target": "T1, human BASIGIN recombinant protein (human, UniProt P35613-2 22-205, limits assumed)", "T1 construct": "also called hBASIGIN", "T1 sequence (looked up)": "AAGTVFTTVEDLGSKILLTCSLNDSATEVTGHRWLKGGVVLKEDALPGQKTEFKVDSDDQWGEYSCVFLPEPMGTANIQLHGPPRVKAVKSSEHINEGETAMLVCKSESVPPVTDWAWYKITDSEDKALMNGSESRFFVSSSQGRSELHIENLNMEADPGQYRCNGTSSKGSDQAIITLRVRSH", "experiment": "SPR (ProteOn XPR36), human BASIGIN amine-coupled on chip, antibody as analyte", "method": "The affinity of the antibody was measured with ProteOn XPR36 (Bio-Rad). The GLC chip (Bio-Rad, 1765011) was activated with 0.04 M EDC+0.01 M sulfo-NHS (Bio-Rad). The human BASIGIN was diluted to […] with 10 mM NaAc (pH 4.5) and then injected onto the chip at the rate of 30 μl/min to couple the antigen with the activated chip via amino groups. Finally, the chip were inactivated with 1 M ethanolamine-HCl (Bio-Rad), and when the chip was rotated for 90 degrees, it was washed with a buffer (PBS/0.005% Tween 20) until the baseline was stable. Five cell culture supernatants containing scFv antibody and one negative control were injected on six horizontal channels, respectively, at feeding rate of 30 μl/min. The time for binding was set as 60 s and the time for dissociation was set as 900 s. The data were analyzed using the Kinetic-Langmuir model.\nThe binding affinity of the three humanized antibodies, the mouse antibody 6H8 and the chimeric antibody c6H8 were also determined by SPR (for detailed steps, please refer to the description in example 6), data were shown in Table 2.", "units": {"Kd": "nM", "koff": "s⁻¹", "kon": "M⁻¹ s⁻¹"}, "values": [{"binder": "B1", "Kd": 1.17, "koff": "6.64e-05", "kon": 56600}, {"binder": "B2", "Kd": 0.452, "koff": "5.81e-05", "kon": 128000}, {"binder": "B3", "Kd": 0.102, "koff": "5.44e-05", "kon": 531000}, {"binder": "B4", "Kd": 0.0905, "koff": "4.96e-05", "kon": 548000}, {"binder": "B5", "Kd": 0.0583, "koff": "3.6e-05", "kon": 618000}]}, {"target": "T1, human BASIGIN recombinant protein", "experiment": "ELISA, coated human BASIGIN recombinant protein, HRP-labelled goat anti-human light chain constant region secondary antibody, A450", "method": "200 ng of human BASIGIN recombinant protein was coated in an ELISA plate and allowed to stand overnight at 4° C. The coated plate was blocked with 0.1% BSA at room temperature for 1 hour. Three antibodies obtained in example 8 along with the parental mouse monoclonal 6H8 and chimeric antibody c6H8 were each prepared into 5 solutions with gradient concentrations of 10, 100, 1,000, 10,000 and 100,000 ng/ml. 100 μl of each solution was added into individual wells and the plate was allowed to stand at room temperature for 1 hour. 100 μl of 1:4,000 diluted horseradish peroxidase-labeled goat anti-human light chain constant region as secondary antibody (Millipore) was added and allowed to stand at room temperature for 1 hour. The plates were then washed with 200 μl of 1×PBS buffer for 3 times, TMB substrate solution (50 μl/well) was added to each well to react for 10 min, and the stopping solution (2 M HCl, 50 μl/well) was added to terminate the reaction. The absorbance at 450 nm was read in an ELISA plate reader.", "units": {"EC50 (read off the curve)": "µg/mL"}, "values": [{"binder": "B1", "EC50 (read off the curve)": "~0.5"}]}]}
